Measurements published in the supplement of paper PMC10567573.

B1: PTPRD (parent)
chain: ITWFKDFLPVDTSNNNGRIKQLRS
B2: ATL3 (parent)
chain: QELEEEIKELYENFCKHNGSKNVF

Variants of: B1
Assay: protein stability index of a GFP-peptide fusion (GPS, HEK-293T) (PSI 1-6); higher = more stable
Conditions: c terminus: a fixed tail appended
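Note: lentivirally expressed fusions sorted by FACS into six bins by GFP to DsRed ratio, PSI derived from sequencing read proportions per bin multiplied by bin number.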

Variant | protein stability index
ITWFFDFLPVDTSNNNGRIKQLRS | 1.97
ITWFGDFLPVDTSNNNGRIKQLRS | 2.17
ITWFKDFLPVDTSNNNGRIKYLRS | 1.93
ITWFKDFLPVDTSNNNGRIKHLRS | 1.56
ITWFKDFLPVDTSNNNGRIKGLRS | 2.28
ITWFKDFLPVDTSNNDGRIKQLRS | 1.88
ITWFKDFDPVDTSNNNGRIKQLRS | 2.31
ITWFKDFAPVDTSNNNGRIKQLRS | 2.14
ITWFKDFNPVDTSNNNGRIKQLRS | 2.1
ITWFKEFLPVDTSNNNGRIKQLRS | 2.36
ITWFKSFLPVDTSNNNGRIKQLRS | 2.27
ISWFKDFLPVDTSNNNGRIKQLRS | 2.12
INWFKDFLPVDTSNNNGRIKQLRS | 2
ITWFKDFLPVDTSNNNGRIKQLRG | 2.34
ITWFKDFLPVDTSNNNGRIKQLRW | 2.63
MTWFKDFLPVDTSNNNGRIKQLRS | 2.62
QTWFKDFLPVDTSNNNGRIKQLRS | 2.71
ITWFKDFLPVDTSNNNWRIKQLRS | 2.63
ITWFKDFLPVDTSNNNYRIKQLRS | 1.78
ITWFKDFLPVDTCNNNGRIKQLRS | 1.54
ITWFKDFLPVDTRNNNGRIKQLRS | 1.88
ITWFKDFLPVDTLNNNGRIKQLRS | 1.88
ITWFKDFLPVDTGNNNGRIKQLRS | 1.77
ITWFKDFLPKDTSNNNGRIKQLRS | 2.07

Variant | protein stability index
ITWFKDFLPVDTSNNNGRIKQGRS | 1.84
ITWFKDFLPVDTSNNNGRIKQFRS | 2.01
ITSFKDFLPVDTSNNNGRIKQLRS | 3.62
ITFFKDFLPVDTSNNNGRIKQLRS | 2.25
ITWFKDFLPVDTSNNNGRRKQLRS | 1.84
ITWFKDFLPVDTSNNNGRWKQLRS | 1.46
ITWFKDFLPVDTSNNNGRPKQLRS | 1.69
ITWDKDFLPVDTSNNNGRIKQLRS | 3.25
ITWHKDFLPVDTSNNNGRIKQLRS | 2.27
ITWWKDFLPVDTSNNNGRIKQLRS | 2.02
ITWLKDFLPVDTSNNNGRIKQLRS | 1.87
ITWFKDFLPVDFSNNNGRIKQLRS | 1.65
ITWFKDFLPVDISNNNGRIKQLRS | 2.01
ITWFKDFLPVDQSNNNGRIKQLRS | 2.25
ITWFKDFLPVDTSNNNGTIKQLRS | 1.93
ITWFKDFLPVDTSNNNGPIKQLRS | 2.08
ITWFKDFLPVDTSNENGRIKQLRS | 1.69
ITWFKDFLPVDTSNKNGRIKQLRS | 2.54
ITWFKDFLPVDTSNDNGRIKQLRS | 1.74
ITWFKDGLPVDTSNNNGRIKQLRS | 2.25
ITWFKDTLPVDTSNNNGRIKQLRS | 2.38
ITWFKDILPVDTSNNNGRIKQLRS | 2.26
ITWFKDYLPVDTSNNNGRIKQLRS | 1.99
ITWFKDCLPVDTSNNNGRIKQLRS | 2.31

Variants of: B2
Assay: as above
Conditions: c terminus: a fixed tail appended

Variant | protein stability index
QELEEEIKELYENFCKHNGSKTVF | 2.16
QELEEEIKELYENFCKHNGSKGVF | 2.28
QELEEEIKELYENFCKHNGSKKVF | 3.17
QELEEEIKELYENFCKHNGSKIVF | 2.48
QELEEEIKELYENFCKHNGSKLVF | 2.57
QELEEEIKELYENFCKHNGSKSVF | 2.96
QELEEEIKELYENFCKHNGSKCVF | 2.34
QELEEEIKELYENFCKHNGSKRVF | 3.3
QELEEEIKELYENFCKHNGSKAVF | 2.96
QELEEEIKELYENFCKHNGSKQVF | 2.98
QELEEEIKELYENFCKHNGSKFVF | 2.59
QELEEEIKELYENFCKHNGSKVVF | 2.62
QELEEEIKELYENFCKHNGSKEVF | 2.38
QELEEEIKELYENFCKHNGSKYVF | 2.05
QELEEEIKELYENFCKHNGSKWVF | 1.48
QELEEEIKELYENFCKHNGSKPVF | 3.25
QELEEEIKELYENFCKHNGSKDVF | 1.91
QELEEEIKELYENFCKHNGSKHVF | 2.3
QELEEEIKELYENFCKHNGSKMVF | 2.8
QELEEEIKELYENFCKHNGSINVF | 2.12
QELEEEIKELYENFCKHNGSSNVF | 1.57
QELEEEIKELYENFCKHNGSDNVF | 2.11
QELEEEIKELYENFCKHNGSANVF | 2.25
QELEEEIKELYENFCKHNGSFNVF | 1.65

Variant | protein stability index
QELEEEIKELYENFCKHNGSHNVF | 2.16
QELEEEIKELYENFCKHNGSWNVF | 1.81
QELEEEIKELYENFCKHNGSTNVF | 2.08
QELEEEIKELYENFCKHNGSENVF | 1.96
QELEEEIKELYENFCKHNGSPNVF | 2.37
QELEEEIKELYENFCKHNGSRNVF | 2.12
QELEEEIKELYENFCKHNGSLNVF | 2.15
QELEEEIKELYENFCKHNGSGNVF | 2.49
QELEEEIKELYENFCKHNGSVNVF | 1.82
QELEEEIKELYENFCKHNGSYNVF | 1.55
QELEEEIKELYENFCKHNGSMNVF | 1.85
QELEEEIKELYENFCKHNGSQNVF | 2.55
QELEEEIKELYENFCKHNGSNNVF | 2.42
QELEEEIKELYENFCKHNGSCNVF | 2.1
QELEEEIKELYENFCKHLGSKNVF | 3.23
QELEEEIKELYENFCKHPGSKNVF | 2.72
QELEEEIKELYENFCKHYGSKNVF | 2.37
QELEEEIKELYENFCKHAGSKNVF | 2.24
QELEEEIKELYENFCKHCGSKNVF | 2.75
QELEEEIKELYENFCKHTGSKNVF | 2.6
QELEEEIKELYENFCKHKGSKNVF | 2.55
QELEEEIKELYENFCKHRGSKNVF | 2.86
QELEEEIKELYENFCKHSGSKNVF | 2.42
QELEEEIKELYENFCKHEGSKNVF | 2.36

Variant | protein stability index
QELEEEIKELYENFCKHVGSKNVF | 2.58
QELEEEIKELYENFCKHIGSKNVF | 2.04
QELEEEIKELYENFCKHMGSKNVF | 2.69
QELEEEIKELYENFCKHQGSKNVF | 2.68
QELEEEIKELYENFCKHDGSKNVF | 2.28
QELEEEIKELYENFCKHWGSKNVF | 2.85
QELEEEIKELYENFCKHGGSKNVF | 2.34
QELEEEIKELYENFCKHFGSKNVF | 2.3
QELEEEIKELYENFCKHHGSKNVF | 2.94
QELEEEIKELYENFCKHNGSKNVT | 3.11
QELEEEIKELYENFCKHNGSKNVL | 2.56
QELEEEIKELYENFCKHNGSKNVN | 3.07
QELEEEIKELYENFCKHNGSKNVQ | 2.93
QELEEEIKELYENFCKHNGSKNVS | 3.28
QELEEEIKELYENFCKHNGSKNVE | 2.9
QELEEEIKELYENFCKHNGSKNVR | 3.24
QELEEEIKELYENFCKHNGSKNVY | 2.65
QELEEEIKELYENFCKHNGSKNVH | 3.37
QELEEEIKELYENFCKHNGSKNVM | 3.06
QELEEEIKELYENFCKHNGSKNVW | 2.46
QELEEEIKELYENFCKHNGSKNVP | 2.74
QELEEEIKELYENFCKHNGSKNVA | 3.45
QELEEEIKELYENFCKHNGSKNVD | 2.38
QELEEEIKELYENFCKHNGSKNVC | 3.17

Variant | protein stability index
QELEEEIKELYENFCKHNGSKNVI | 2.48
QELEEEIKELYENFCKHNGSKNVG | 2.73
QELEEEIKELYENFCKHNGSKNVV | 3.01
QELEEEIKELYENFCKWNGSKNVF | 2.46
QELEEEIKELYENFCKRNGSKNVF | 2.6
QELEEEIKELYENFCKQNGSKNVF | 2.44
QELEEEIKELYENFCKVNGSKNVF | 2.72
QELEEEIKELYENFCKPNGSKNVF | 3.34
QELEEEIKELYENFCKYNGSKNVF | 2.42
QELEEEIKELYENFCKSNGSKNVF | 2.62
QELEEEIKELYENFCKTNGSKNVF | 2.63
QELEEEIKELYENFCKHNGPKNVF | 3.46
QELEEEIKELYENFCKHNGQKNVF | 2.45
QELEEEIKELYENFCKHNGGKNVF | 2.48
QELEEEIKELYENFCKHNGKKNVF | 3.17
QELEEEIKELYENFCKHNGYKNVF | 2.29
QELEEEIKELYENFCKHNGEKNVF | 2.04
QELEEEIKELYENFCKHNGWKNVF | 2.16
QELEEEIKELYENFCKHNGHKNVF | 2.59
QELEEEIKELYENFCKHNGCKNVF | 2.28
QELEEEIKELYENFCKHNGLKNVF | 2.41
QELEEEIKELYENFCKHNGAKNVF | 2.66
QELEEEIKELYENFCKHNGMKNVF | 2.24
QELEEEIKELYENFCKHNGVKNVF | 2.93

Variant | protein stability index
QELEEEIKELYENFCKHNGFKNVF | 2
QELEEEIKELYENFCKHNGTKNVF | 2.7
QELEEEIKELYENFCKHNGDKNVF | 1.97
QELEEEIKELYENFCKHNGIKNVF | 2.54
QELEEEIKELYENFCKHNGNKNVF | 2.48
QELEEEIKELYENFCKHNGRKNVF | 3.77
QELEEEIKELYENFCKHNRSKNVF | 2.54
QELEEEIKELYENFCKHNTSKNVF | 2.25
QELEEEIKELYENFCKHNFSKNVF | 2.65
QELEEEIKELYENFCKHNISKNVF | 2.99
QELEEEIKELYENFCKHNESKNVF | 2.11
QELEEEIKELYENFCKHNYSKNVF | 2.85
QELEEEIKELYENFCKHNSSKNVF | 3.18
QELEEEIKELYENFCKHNMSKNVF | 2.46
QELEEEIKELYENFCKHNPSKNVF | 3.03
QELEEEIKELYENFCKHNHSKNVF | 2.87
QELEEEIKELYENFCKHNWSKNVF | 1.91
QELEEEIKELYENFCKHNNSKNVF | 2.69
QELEEEIKELYENFCKHNLSKNVF | 2.55
QELEEEIKELYENFCKHNCSKNVF | 2.31
QELEEEIKELYENFCKHNDSKNVF | 2.46
QELEEEIKELYENFCKHNQSKNVF | 2.73
QELEEEIKELYENFCKHNVSKNVF | 2.35
QELEEEIKELYENFCKHNASKNVF | 2.59

Variant | protein stability index
QELEEEIKELYENFCKHNKSKNVF | 2.4
QELEEEIKELYENFCKHNGSKNQF | 2.68
QELEEEIKELYENFCKHNGSKNMF | 3.24
QELEEEIKELYENFCKHNGSKNSF | 2.38
QELEEEIKELYENFCKHNGSKNEF | 3.07
QELEEEIKELYENFCKHNGSKNDF | 2.16
QELEEEIKELYENFCKHNGSKNRF | 3.44
QELEEEIKELYENFCKHNGSKNNF | 3.06
QELEEEIKELYENFCKHNGSKNFF | 2.22
QELEEEIKELYENFCKHNGSKNWF | 2.85
QELEEEIKELYENFCKHNGSKNHF | 3.56
QELEEEIKELYENFCKHNGSKNTF | 2.49
QELEEEIKELYENFCKHNGSKNAF | 2.73
QELEEEIKELYENFCKHNGSKNPF | 2.61
QELEEEIKELYENFCKHNGSKNLF | 2.68
QELEEEIKELYENFCKHNGSKNGF | 2.94
QELEEEIKELYENFCKHNGSKNCF | 2.27
QELEEEIKELYENFCKHNGSKNKF | 2.89
QELEEEIKELYENFCKHNGSKNIF | 2.62
QELEEEIKELYENFCKHNGSKNYF | 1.94
